Target: T1, ALCAM/MEMD/CD166 (human, UniProt Q13740 28-583)
T1 construct: whole, on cells; Endogenous antigen on Du-145 prostate cancer cells (FACS) and in lysates of surface-biotinylated Du-145 cells (IP and Western blot)
T1 sequence (looked up): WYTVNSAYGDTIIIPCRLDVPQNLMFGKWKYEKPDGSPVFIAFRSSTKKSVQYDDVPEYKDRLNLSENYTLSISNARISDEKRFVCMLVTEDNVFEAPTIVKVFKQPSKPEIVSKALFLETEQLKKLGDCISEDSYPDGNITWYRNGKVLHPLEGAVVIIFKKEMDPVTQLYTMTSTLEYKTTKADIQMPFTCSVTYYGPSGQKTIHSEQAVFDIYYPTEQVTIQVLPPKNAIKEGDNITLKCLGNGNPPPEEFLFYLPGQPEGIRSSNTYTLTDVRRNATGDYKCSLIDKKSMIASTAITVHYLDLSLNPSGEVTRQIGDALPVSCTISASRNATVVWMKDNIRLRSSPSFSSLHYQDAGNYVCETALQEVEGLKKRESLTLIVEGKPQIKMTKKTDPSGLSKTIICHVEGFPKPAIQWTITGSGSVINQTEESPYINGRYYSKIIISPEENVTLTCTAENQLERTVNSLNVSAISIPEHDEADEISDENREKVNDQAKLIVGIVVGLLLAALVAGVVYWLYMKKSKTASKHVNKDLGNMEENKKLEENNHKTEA
Test: FACS on Du-145 cells, equilibrium binding at 4 C overnight, apparent KD by curve fitting of MFI
Experimental: Monodispersed DU-145 cells were incubated with varying concentrations of IgG1s at 4° C. overnight to allow equilibrium binding. After washing, bound human IgG1 s were detected by R-phycoerythrin-conjugated goat anti-human secondary antibody and analyzed by FACS. Mean fluorescence intensity (MFI) values were plotted and the KD was determined by curve fitting using GraphPad (GraphPad Software, San Diego, Calif.).

B1: anti-ALCAM IgG1 (585II41.1, also known as H3) (antibody, V domains shown)
VH: QVQLVESGGGLVQPGGSLRLSCAASGFTFSSYAMSWVRQAPGKGLEWVSAISGSGGSTYYADSVKGRFTISRDNSKDTLYLQMNSLRAEDTAVYYCASRSLLDYWGQGTLVTVSS
VL: NFMLTQDPAVSVALGQTVRITCQGDSLRSYYASWYQQKPGQAPLLVIYGKNNRPSGIPDRFSGSSSGNTASLTITGAQAEDEADYYCNSRDSSGNPVFGGGTKVTVL
notes: also called H3 IgG; H3 IgG1
  Kd: 4.4 pM
